Earlier results, collected in PMC5493423.

Test system: CD31 (protein used for the reported Kd)
Details: biotin; PBMCs at 1e7 cells/ml, 100 ul, aptamer 30 min at 4 C, then flow cytometry staining buffer; column in APTSCI binding buffer (composition not given)

## CD31 aptamer, biotinylated (APTSCI CD31-2196BCI)
  Kd: 1.14 nM
